Data from the supplement of paper PMC9112550, “Optimization of the antimicrobial peptide Bac7 by deep mutational scanning” (BMC Biology, 2022).

Tested on: Escherichia coli TOP10
Assay: shrunken log2 fold change of peptide-encoding DNA abundance (4.5 h post-induction vs induction); higher = less antimicrobial activity (less host growth inhibition)
Conditions: time post-induction: 4.5 h; library: site-saturation at positions 5, 18, 19, 20
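Further: peptides expressed intracellularly from a pBAD plasmid library in pooled LB shake-flask culture, induced with 0.3% L-arabinose, DNA abundance read by NGS, three biological replicates, DESeq2 with apeglm shrinkage.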

## RRIRMRPPRLPRPRPRPDGFPRP
  shrunken log2 fold change: 0.0516

## RRIRMRPPRLPRPRPRPDGGPRP
  shrunken log2 fold change: 0.135

## RRIRMRPPRLPRPRPRPDGPPRP
  shrunken log2 fold change: 0.0285

## RRIRMRPPRLPRPRPRPDGSPRP
  shrunken log2 fold change: 0.107

## RRIRMRPPRLPRPRPRPDHYPRP
  shrunken log2 fold change: -0.0146

## RRIRMRPPRLPRPRPRPDIDPRP
  shrunken log2 fold change: 0.467

## RRIRMRPPRLPRPRPRPDIIPRP
  shrunken log2 fold change: 1.42

## RRIRMRPPRLPRPRPRPDKKPRP
  shrunken log2 fold change: -0.0148

## RRIRMRPPRLPRPRPRPDKRPRP
  shrunken log2 fold change: 0.076

## RRIRMRPPRLPRPRPRPDLHPRP
  shrunken log2 fold change: 0.0663

## RRIRMRPPRLPRPRPRPDLNPRP
  shrunken log2 fold change: 0.178

## RRIRMRPPRLPRPRPRPDLYPRP
  shrunken log2 fold change: 0.0737

## RRIRMRPPRLPRPRPRPDPNPRP
  shrunken log2 fold change: 0.0963

## RRIRMRPPRLPRPRPRPDPTPRP
  shrunken log2 fold change: 0.0984

## RRIRMRPPRLPRPRPRPDQCPRP
  shrunken log2 fold change: 0.0192

## RRIRMRPPRLPRPRPRPDQQPRP
  shrunken log2 fold change: -0.0225

## RRIRMRPPRLPRPRPRPDRDPRP
  shrunken log2 fold change: 0.353

## RRIRMRPPRLPRPRPRPDSGPRP
  shrunken log2 fold change: -0.01

## RRIRMRPPRLPRPRPRPDSYPRP
  shrunken log2 fold change: 0.0873

## RRIRMRPPRLPRPRPRPDYTPRP
  shrunken log2 fold change: -0.0182

## RRIRMRPPRLPRPRPRPEAEPRP
  shrunken log2 fold change: 2.18

## RRIRMRPPRLPRPRPRPECAPRP
  shrunken log2 fold change: 3.56

## RRIRMRPPRLPRPRPRPECHPRP
  shrunken log2 fold change: -0.0482

## RRIRMRPPRLPRPRPRPECTPRP
  shrunken log2 fold change: 2.91

## RRIRMRPPRLPRPRPRPEDAPRP
  shrunken log2 fold change: 3.45

## RRIRMRPPRLPRPRPRPEDMPRP
  shrunken log2 fold change: 3.26

## RRIRMRPPRLPRPRPRPEFTPRP
  shrunken log2 fold change: 0.101

## RRIRMRPPRLPRPRPRPEKPPRP
  shrunken log2 fold change: 1.34

## RRIRMRPPRLPRPRPRPELLPRP
  shrunken log2 fold change: 3.52

## RRIRMRPPRLPRPRPRPELRPRP
  shrunken log2 fold change: 2.02

## RRIRMRPPRLPRPRPRPEMWPRP
  shrunken log2 fold change: 2.4

## RRIRMRPPRLPRPRPRPEPIPRP
  shrunken log2 fold change: 0.0584

## RRIRMRPPRLPRPRPRPEPTPRP
  shrunken log2 fold change: 2.58

## RRIRMRPPRLPRPRPRPEQDPRP
  shrunken log2 fold change: 0.0255

## RRIRMRPPRLPRPRPRPEQHPRP
  shrunken log2 fold change: 1.06

## RRIRMRPPRLPRPRPRPEQRPRP
  shrunken log2 fold change: 2.55

## RRIRMRPPRLPRPRPRPEQWPRP
  shrunken log2 fold change: 0.184

## RRIRMRPPRLPRPRPRPESEPRP
  shrunken log2 fold change: 3.39

## RRIRMRPPRLPRPRPRPESSPRP
  shrunken log2 fold change: 0.135

## RRIRMRPPRLPRPRPRPETMPRP
  shrunken log2 fold change: 3.17

## RRIRMRPPRLPRPRPRPEVNPRP
  shrunken log2 fold change: 0.156

## RRIRMRPPRLPRPRPRPEWRPRP
  shrunken log2 fold change: 0.829

## RRIRMRPPRLPRPRPRPEWWPRP
  shrunken log2 fold change: -0.00783

## RRIRMRPPRLPRPRPRPFDHPRP
  shrunken log2 fold change: -0.00544

## RRIRMRPPRLPRPRPRPFDWPRP
  shrunken log2 fold change: 0.597

## RRIRMRPPRLPRPRPRPFEHPRP
  shrunken log2 fold change: -0.327

## RRIRMRPPRLPRPRPRPFESPRP
  shrunken log2 fold change: -0.00973

## RRIRMRPPRLPRPRPRPFFVPRP
  shrunken log2 fold change: -0.0457

## RRIRMRPPRLPRPRPRPFGPPRP
  shrunken log2 fold change: -0.159

## RRIRMRPPRLPRPRPRPFGRPRP
  shrunken log2 fold change: -0.00674

## RRIRMRPPRLPRPRPRPFIAPRP
  shrunken log2 fold change: -0.251

## RRIRMRPPRLPRPRPRPFIYPRP
  shrunken log2 fold change: 0.892

## RRIRMRPPRLPRPRPRPFLIPRP
  shrunken log2 fold change: -0.34

## RRIRMRPPRLPRPRPRPFLLPRP
  shrunken log2 fold change: -0.227

## RRIRMRPPRLPRPRPRPFLSPRP
  shrunken log2 fold change: -0.0215

## RRIRMRPPRLPRPRPRPFNFPRP
  shrunken log2 fold change: -0.598

## RRIRMRPPRLPRPRPRPFNWPRP
  shrunken log2 fold change: -0.0926

## RRIRMRPPRLPRPRPRPFQFPRP
  shrunken log2 fold change: -0.0349

## RRIRMRPPRLPRPRPRPFQRPRP
  shrunken log2 fold change: -0.0335

## RRIRMRPPRLPRPRPRPFRNPRP
  shrunken log2 fold change: -0.0431

## RRIRMRPPRLPRPRPRPFTAPRP
  shrunken log2 fold change: 0.245

## RRIRMRPPRLPRPRPRPFVNPRP
  shrunken log2 fold change: 1.6

## RRIRMRPPRLPRPRPRPFWLPRP
  shrunken log2 fold change: -0.179

## RRIRMRPPRLPRPRPRPFWNPRP
  shrunken log2 fold change: -0.266

## RRIRMRPPRLPRPRPRPGACPRP
  shrunken log2 fold change: 0.73

## RRIRMRPPRLPRPRPRPGCFPRP
  shrunken log2 fold change: 0.773

## RRIRMRPPRLPRPRPRPGCKPRP
  shrunken log2 fold change: 0.172

## RRIRMRPPRLPRPRPRPGCLPRP
  shrunken log2 fold change: 0.503

## RRIRMRPPRLPRPRPRPGCNPRP
  shrunken log2 fold change: 0.00293

## RRIRMRPPRLPRPRPRPGDPPRP
  shrunken log2 fold change: 1.09

## RRIRMRPPRLPRPRPRPGDTPRP
  shrunken log2 fold change: 0.064

## RRIRMRPPRLPRPRPRPGEAPRP
  shrunken log2 fold change: 2.18

## RRIRMRPPRLPRPRPRPGEMPRP
  shrunken log2 fold change: 0.0709

## RRIRMRPPRLPRPRPRPGFCPRP
  shrunken log2 fold change: 0.442

## RRIRMRPPRLPRPRPRPGFHPRP
  shrunken log2 fold change: -0.039

## RRIRMRPPRLPRPRPRPGFLPRP
  shrunken log2 fold change: 0.113

## RRIRMRPPRLPRPRPRPGFSPRP
  shrunken log2 fold change: 0.331

## RRIRMRPPRLPRPRPRPGFYPRP
  shrunken log2 fold change: 0.0157

## RRIRMRPPRLPRPRPRPGGNPRP
  shrunken log2 fold change: 0.671

## RRIRMRPPRLPRPRPRPGHVPRP
  shrunken log2 fold change: 0.329

## RRIRMRPPRLPRPRPRPGHYPRP
  shrunken log2 fold change: -0.196

## RRIRMRPPRLPRPRPRPGIKPRP
  shrunken log2 fold change: 0.274

## RRIRMRPPRLPRPRPRPGMTPRP
  shrunken log2 fold change: 1.47

## RRIRMRPPRLPRPRPRPGNDPRP
  shrunken log2 fold change: 1.19

## RRIRMRPPRLPRPRPRPGNPPRP
  shrunken log2 fold change: 0.639

## RRIRMRPPRLPRPRPRPGQCPRP
  shrunken log2 fold change: 0.234

## RRIRMRPPRLPRPRPRPGQYPRP
  shrunken log2 fold change: -0.00987

## RRIRMRPPRLPRPRPRPGRGPRP
  shrunken log2 fold change: 1.26

## RRIRMRPPRLPRPRPRPGVPPRP
  shrunken log2 fold change: 0.671

## RRIRMRPPRLPRPRPRPGVTPRP
  shrunken log2 fold change: 0.285

## RRIRMRPPRLPRPRPRPGVWPRP
  shrunken log2 fold change: 0.723

## RRIRMRPPRLPRPRPRPGWWPRP
  shrunken log2 fold change: -0.026

## RRIRMRPPRLPRPRPRPGWYPRP
  shrunken log2 fold change: -0.277

## RRIRMRPPRLPRPRPRPGYCPRP
  shrunken log2 fold change: 0.0615

## RRIRMRPPRLPRPRPRPGYRPRP
  shrunken log2 fold change: 0.158

## RRIRMRPPRLPRPRPRPHAEPRP
  shrunken log2 fold change: 2.8

## RRIRMRPPRLPRPRPRPHAKPRP
  shrunken log2 fold change: 0.256

## RRIRMRPPRLPRPRPRPHAPPRP
  shrunken log2 fold change: 0.469

## RRIRMRPPRLPRPRPRPHCGPRP
  shrunken log2 fold change: -0.033

## RRIRMRPPRLPRPRPRPHCHPRP
  shrunken log2 fold change: -0.137

## RRIRMRPPRLPRPRPRPHDCPRP
  shrunken log2 fold change: 0.0419

## RRIRMRPPRLPRPRPRPHDHPRP
  shrunken log2 fold change: -0.0397

## RRIRMRPPRLPRPRPRPHDMPRP
  shrunken log2 fold change: 0.0059

## RRIRMRPPRLPRPRPRPHEDPRP
  shrunken log2 fold change: 0.465

## RRIRMRPPRLPRPRPRPHEVPRP
  shrunken log2 fold change: 0.16

## RRIRMRPPRLPRPRPRPHGCPRP
  shrunken log2 fold change: 0.669

## RRIRMRPPRLPRPRPRPHGEPRP
  shrunken log2 fold change: 0.365

## RRIRMRPPRLPRPRPRPHHDPRP
  shrunken log2 fold change: 0.0126

## RRIRMRPPRLPRPRPRPHHFPRP
  shrunken log2 fold change: -0.00112

## RRIRMRPPRLPRPRPRPHHPPRP
  shrunken log2 fold change: -0.234

## RRIRMRPPRLPRPRPRPHHSPRP
  shrunken log2 fold change: -0.236

## RRIRMRPPRLPRPRPRPHIFPRP
  shrunken log2 fold change: -0.268

## RRIRMRPPRLPRPRPRPHIYPRP
  shrunken log2 fold change: -0.289

## RRIRMRPPRLPRPRPRPHKAPRP
  shrunken log2 fold change: 0.000331

## RRIRMRPPRLPRPRPRPHKYPRP
  shrunken log2 fold change: -0.152

## RRIRMRPPRLPRPRPRPHMHPRP
  shrunken log2 fold change: 0.00917

## RRIRMRPPRLPRPRPRPHNNPRP
  shrunken log2 fold change: -0.153

## RRIRMRPPRLPRPRPRPHNPPRP
  shrunken log2 fold change: -0.329

## RRIRMRPPRLPRPRPRPHNYPRP
  shrunken log2 fold change: -0.0828

## RRIRMRPPRLPRPRPRPHPAPRP
  shrunken log2 fold change: 0.903

## RRIRMRPPRLPRPRPRPHPKPRP
  shrunken log2 fold change: 0.0698

## RRIRMRPPRLPRPRPRPHQNPRP
  shrunken log2 fold change: 0.114

## RRIRMRPPRLPRPRPRPHVGPRP
  shrunken log2 fold change: 0.105

## RRIRMRPPRLPRPRPRPHVMPRP
  shrunken log2 fold change: -0.192

## RRIRMRPPRLPRPRPRPHVPPRP
  shrunken log2 fold change: 0.107

## RRIRMRPPRLPRPRPRPHVQPRP
  shrunken log2 fold change: -0.0996

## RRIRMRPPRLPRPRPRPHWGPRP
  shrunken log2 fold change: 0.12

## RRIRMRPPRLPRPRPRPHWQPRP
  shrunken log2 fold change: 0.161

## RRIRMRPPRLPRPRPRPHYWPRP
  shrunken log2 fold change: -0.121

## RRIRMRPPRLPRPRPRPIAGPRP
  shrunken log2 fold change: -0.0293

## RRIRMRPPRLPRPRPRPICAPRP
  shrunken log2 fold change: 0.486

## RRIRMRPPRLPRPRPRPIFDPRP
  shrunken log2 fold change: 0.00763

## RRIRMRPPRLPRPRPRPIFVPRP
  shrunken log2 fold change: -0.111

## RRIRMRPPRLPRPRPRPIFWPRP
  shrunken log2 fold change: 0.337

## RRIRMRPPRLPRPRPRPIGIPRP
  shrunken log2 fold change: -0.0706

## RRIRMRPPRLPRPRPRPIHDPRP
  shrunken log2 fold change: 0.0367

## RRIRMRPPRLPRPRPRPIKLPRP
  shrunken log2 fold change: 0.0649

## RRIRMRPPRLPRPRPRPIKMPRP
  shrunken log2 fold change: 0.14

## RRIRMRPPRLPRPRPRPILPPRP
  shrunken log2 fold change: 0.0577

## RRIRMRPPRLPRPRPRPINNPRP
  shrunken log2 fold change: -0.347

## RRIRMRPPRLPRPRPRPIPMPRP
  shrunken log2 fold change: 0.414

## RRIRMRPPRLPRPRPRPIPSPRP
  shrunken log2 fold change: 0.0101

## RRIRMRPPRLPRPRPRPIQHPRP
  shrunken log2 fold change: -0.124

## RRIRMRPPRLPRPRPRPIQLPRP
  shrunken log2 fold change: -0.0799

## RRIRMRPPRLPRPRPRPIRCPRP
  shrunken log2 fold change: 0.086

## RRIRMRPPRLPRPRPRPIRDPRP
  shrunken log2 fold change: -0.261

## RRIRMRPPRLPRPRPRPISSPRP
  shrunken log2 fold change: -0.0416

## RRIRMRPPRLPRPRPRPISWPRP
  shrunken log2 fold change: 0.109

## RRIRMRPPRLPRPRPRPITIPRP
  shrunken log2 fold change: -0.315

## RRIRMRPPRLPRPRPRPITYPRP
  shrunken log2 fold change: -0.0199
